These results are taken from publication PMC9583076.

This assay deals with Individual alanine mutations of these three residues (HTR2B S455, S456 and S457). The assay is described as follows: FRET or BRET.

N-terminal Venus-tagged β-arrestin-1, sequence (P49407 whole entry): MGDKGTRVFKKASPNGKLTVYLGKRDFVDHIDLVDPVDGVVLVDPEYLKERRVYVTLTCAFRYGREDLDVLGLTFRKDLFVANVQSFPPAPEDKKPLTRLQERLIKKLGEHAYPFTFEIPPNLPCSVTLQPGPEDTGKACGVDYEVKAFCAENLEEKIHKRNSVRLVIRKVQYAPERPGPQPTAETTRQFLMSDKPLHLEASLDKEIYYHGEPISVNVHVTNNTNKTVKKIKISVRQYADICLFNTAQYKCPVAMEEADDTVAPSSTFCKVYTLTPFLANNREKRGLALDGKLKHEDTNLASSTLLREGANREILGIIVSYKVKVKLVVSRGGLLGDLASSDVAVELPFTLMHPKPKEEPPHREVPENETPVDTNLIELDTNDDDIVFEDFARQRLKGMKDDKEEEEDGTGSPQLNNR

“N-terminal Venus-tagged β-arrestin-1 (from UniProt P49407 1-418) (natural protein)” showed a reduction of Emax of β-arrestin-1 recruitment against WT of 30 to 50%.
